The values that follow come from patent US20200095333A1 (published 2020).

Assay [1] concerns the target T1, sCD16A (soluble CD16A, FcgammaRIIIA) (human, UniProt P08637 17-208).
T1 construct: extracellular domain; given only as soluble; used immobilised (SPR), coated, or biotin/HRP-labelled as probe (ELISA); also called CD16 antigen; sCD16A-Biotin
Nature of the assay: SPR (BIAcore), receptor immobilised, diabody 6.25-200 nM. Background: Surface plasmon resonance follows binding to a sensor surface in real time, without labels.

The target in assay [2] is T2, sCD32B (soluble CD32B, FcgammaRIIB) (human, UniProt P31994 43-217).
T2 construct: extracellular domain; also called soluble CD32B ectodomain
T2 sequence: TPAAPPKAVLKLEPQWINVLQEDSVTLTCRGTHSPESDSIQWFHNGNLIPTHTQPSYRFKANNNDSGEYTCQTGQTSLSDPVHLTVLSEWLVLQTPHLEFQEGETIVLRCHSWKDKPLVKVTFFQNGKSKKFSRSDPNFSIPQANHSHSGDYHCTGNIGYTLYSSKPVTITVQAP
The assay is described as above.

In assay [3] the target is T3, sCD32A (soluble CD32A, negative control receptor) (UniProt P12318 34-217).
T3 construct: extracellular domain
T3 sequence: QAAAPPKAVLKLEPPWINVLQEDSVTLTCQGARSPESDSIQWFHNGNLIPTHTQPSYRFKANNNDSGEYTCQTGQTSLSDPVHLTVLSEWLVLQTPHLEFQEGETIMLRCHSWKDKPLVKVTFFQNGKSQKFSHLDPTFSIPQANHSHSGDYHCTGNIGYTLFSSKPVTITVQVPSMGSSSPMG
Nature of the assay: SPR (BIAcore), receptor immobilised.

T1 sequence (P08637 17-208): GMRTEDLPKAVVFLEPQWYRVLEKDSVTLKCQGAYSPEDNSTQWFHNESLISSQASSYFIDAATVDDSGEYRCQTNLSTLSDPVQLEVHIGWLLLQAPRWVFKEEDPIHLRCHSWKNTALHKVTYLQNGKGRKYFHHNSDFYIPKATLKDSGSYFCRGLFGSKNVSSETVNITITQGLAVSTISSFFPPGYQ

B1: h2B6-h3G8 CBD (covalent bispecific diabody, constructs 1 and 2) (bispecific antibody)
chain 1: EIVLTQSPDFQSVTPKEKVTFTCRTSQSIGTNIHWYQQKPDQSPKLLIKEVSESISGVPSRFSGSGSGTDFTLTINSLEAEDAATYYCQQSNTWPFTFGGGTKVEIKGGGSGGGGQVTLRESGPALVKPTQTLTLTCTFSGFSLSTSGMGVGWIRQPPGKALEWLAHIWWDDDKRYNPALKSRLTISKDTSKNQVVLTMTNMDPVDTATYYCAQINPAWFAYWGQGTLVTVSSLGGC
chain 2: DIVMTQSPDSLAVSLGERATINCKASQSVDFDGDSFMNWYQQKPGQPPKLLIYTTSNLESGVPDRFSGSGSGTDFTLTISSLQAEDVAVYYCQQSNEDPYTFGQGTKLEIKGGGSGGGGQVQLVQSGAEVKKPGASVKVSCKASGYTFTNYWIHWVRQAPGQGLEWIGVIDPSDTYPNYNKKFKGRVTMTVVVSTSTAYMELRSLRSDDTAVYYCARNGDSDYYSGMDYWGQGTTVTVSSLGGC
notes: also called h2B6-h3G8 diabody; h2B6-h3G8 covalent heterodimer
As for B1, the Kd (commonly a measure of binding affinity in units of concentration) is 22.7 nM in assay [1] and 15 nM in assay [2]. Besides, the binding result in assay [3] is given as “no binding (tested: 100 nM)”.
